# Source: patent publication US20070071746A1 (AstraZeneca / MedImmune, published 2007)
# T1: human YKL-39 (human, UniProt Q15782 27-390)
# T1 construct: Recombinant from HEK293; non-tagged versions also made; also called hYKL-39; chondrocyte protein 39
# T1 sequence: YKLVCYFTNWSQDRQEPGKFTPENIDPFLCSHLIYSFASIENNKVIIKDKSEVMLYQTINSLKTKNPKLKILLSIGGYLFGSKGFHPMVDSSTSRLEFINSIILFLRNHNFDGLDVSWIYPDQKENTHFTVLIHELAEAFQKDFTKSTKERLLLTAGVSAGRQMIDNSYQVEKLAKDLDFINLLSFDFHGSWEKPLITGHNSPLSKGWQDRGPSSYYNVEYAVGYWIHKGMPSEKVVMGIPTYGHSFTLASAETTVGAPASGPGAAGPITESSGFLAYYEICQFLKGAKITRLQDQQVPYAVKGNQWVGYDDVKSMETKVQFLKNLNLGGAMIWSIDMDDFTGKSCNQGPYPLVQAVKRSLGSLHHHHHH
# B1: human AMCase C-terminally truncated, lacking the chitin binding domain (enzyme)
# chain: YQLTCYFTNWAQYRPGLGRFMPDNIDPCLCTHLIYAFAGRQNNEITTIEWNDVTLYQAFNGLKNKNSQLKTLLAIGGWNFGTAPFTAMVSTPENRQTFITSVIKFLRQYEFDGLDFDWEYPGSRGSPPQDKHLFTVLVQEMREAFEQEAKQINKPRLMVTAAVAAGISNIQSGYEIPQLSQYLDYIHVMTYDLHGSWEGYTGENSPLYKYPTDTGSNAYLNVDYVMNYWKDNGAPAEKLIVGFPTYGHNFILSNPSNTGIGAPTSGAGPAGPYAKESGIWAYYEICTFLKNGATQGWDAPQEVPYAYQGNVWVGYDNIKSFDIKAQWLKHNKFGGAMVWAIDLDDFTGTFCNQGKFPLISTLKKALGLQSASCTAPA
# notes: Biotin labeled in the galectin ELISA; also called hAMCase TR
# B2: galectin 8 (other, UniProt O00214 1-317, looked up)
# chain: MMLSLNNLQNIIYNPVIPFVGTIPDQLDPGTLIVIRGHVPSDADRFQVDLQNGSSMKPRADVAFHFNPRFKRAGCIVCNTLINEKWGREEITYDTPFKREKSFEIVIMVLKDKFQVAVNGKHTLLYGHRIGPEKIDTLGIYGKVNIHSIGFSFSSDLQSTQASSLELTEISRENVPKSGTPQLRLPFAARLNTPMGPGRTVVVKGEVNANAKSFNVDLLAGKSKDIALHLNPRLNIKAFVRNSFLQESWGEEERNITSFPFSPGMYFEMIIYCDVREFKVAVNGVHSLEYKHRFKELSSIDTLEINGDIHLLEVRSW
# notes: also called LGALS8
# B3: mouse galectin-4 (other, UniProt Q8K419 1-326, looked up)
# chain: MAYVPAPGYQPTYNPTLPYKRPIPGGLSVGMSVYIQGMAKENMRRFHVNFAVGQDDGADVAFHFNPRFDGWDKVVFNTMQSGQWGKEEKKKSMPFQKGKHFELVFMVMPEHYKVVVNGNSFYEYGHRLPVQMVTHLQVDGDLELQSINFLGGQPAAAPYPGAMTIPAYPAGSPGYNPPQMNTLPVMTGPPVFNPRVPYVGALQGGLTVRRTIIIKGYVLPTARNFVINFKVGSSGDIALHLNPRIGDSVVRNSFMNGSWGAEERKVAYNPFGPGQFFDLSIRCGMDRFKVFANGQHLFDFSHRFQAFQMVDTLEINGDITLSYVQI
# notes: also called mGal-4
# B4: M1 (antibody, V domains shown)
# VH: EVQLLESGGGLVQPGGSLRLSCAASGFTFSTYGMDWVRQAPGKGLEWVSYISPSGGYTMYADSVKGRFTISRDNSKNTLYLQMNSLRAEDTAVYYCARHSPRSAGANAFDIWGQGTMVTVSS
# VL: DIQMTQSPATLSVSPGERATLSCRASQSVSSNLAWYQQKPGQAPRLLIYGASTRATGIPARFSGSGSGTEFTLTISSLQSEDFAVYYCQQYGSSLWTFGQGTKVEIK
# notes: Fully human anti-AMCase antibody from phage display, converted to full length IgG
# B5: galectin 2 (other, UniProt P05162 1-132, looked up)
# chain: MTGELEVKNMDMKPGSTLKITGSIADGTDGFVINLGQGTDKLNLHFNPRFSESTIVCNSLDGSNWGQEQREDHLCFSPGSEVKFTVTFESDKFKVKLPDGHELTFPNRLGHSHLSYLSVRGGFNMSSFKLKE
# B6: human acidic mammalian chitinase (AMCase), full length (enzyme)
# chain: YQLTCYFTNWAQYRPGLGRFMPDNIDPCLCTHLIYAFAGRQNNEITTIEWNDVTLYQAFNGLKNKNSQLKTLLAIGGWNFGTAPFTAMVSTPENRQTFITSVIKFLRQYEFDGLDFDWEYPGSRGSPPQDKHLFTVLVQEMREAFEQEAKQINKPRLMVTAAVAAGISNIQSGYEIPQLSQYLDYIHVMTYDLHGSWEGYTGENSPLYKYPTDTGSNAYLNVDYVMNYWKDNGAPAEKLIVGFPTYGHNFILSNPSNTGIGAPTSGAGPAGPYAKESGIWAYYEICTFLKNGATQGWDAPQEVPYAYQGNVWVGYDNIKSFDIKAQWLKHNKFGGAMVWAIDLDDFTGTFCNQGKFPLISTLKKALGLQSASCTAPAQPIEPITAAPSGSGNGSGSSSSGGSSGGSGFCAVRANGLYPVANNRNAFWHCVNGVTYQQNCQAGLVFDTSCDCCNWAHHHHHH
# notes: Recombinant from HEK293; non-tagged versions also made; Biotin labeled in the galectin ELISA; also called hAMCase; human AMCase
# B7: M5 (antibody, V domains shown)
# VH: EVQLLESGGGLVQPGGSLRLSCAASGFTFSKYLMQWVRQAPGKGLEWVSSIVPSGGETVYADSVKGRFTISRDNSKNTLYLQMNSLRAEDTAVYYCARSGTYGASRYWGQGTLVTVSS
# VL: DIQMTQSPLSLSVSVGQSASISCRSSHSLLYSDGNTYINWFHQRPGQSPRRLIHMVSKRDSGVPDRFSGSGSGTDFTLKISRAEAEDVGVYYCMQATYFPLTFGGGTRVEIK
# notes: Fully human anti-AMCase antibody from a phage display library, converted to full length IgG
# B8: human galectin-4 (other, UniProt P56470 1-323, looked up)
# chain: MAYVPAPGYQPTYNPTLPYYQPIPGGLNVGMSVYIQGVASEHMKRFFVNFVVGQDPGSDVAFHFNPRFDGWDKVVFNTLQGGKWGSEERKRSMPFKKGAAFELVFIVLAEHYKVVVNGNPFYEYGHRLPLQMVTHLQVDGDLQLQSINFIGGQPLRPQGPPMMPPYPGPGHCHQQLNSLPTMEGPPTFNPPVPYFGRLQGGLTARRTIIIKGYVPPTGKSFAINFKVGSSGDIALHINPRMGNGTVVRNSLLNGSWGSEEKKITHNPFGPGQFFDLSIRCGLDRFKVYANGQHLFDFAHRLSAFQRVDTLEIQGDVTLSYVQI
# notes: also called gal-4
# B9: mouse galectin-3 (other, UniProt P16110 2-264, looked up)
# chain: ADSFSLNDALAGSGNPNPQGYPGAWGNQPGAGGYPGAAYPGAYPGQAPPGAYPGQAPPGAYPGQAPPSAYPGPTAPGAYPGPTAPGAYPGQPAPGAFPGQPGAPGAYPQCSGGYPAAGPYGVPAGPLTVPYDLPLPGGVMPRMLITIMGTVKPNANRIVLDFRRGNDVAFHFNPRFNENNRRVIVCNTKQDNNWGKEERQSAFPFESGKPFKIQVLVEADHFKVAVNDAHLLQYNHRMKNLREISQLGISGDITLTSANHAMI
# notes: also called mGal-3
# How the values were obtained:
# human galectin-4 = target: B8; experiment: ELISA: galectin immobilised on the plate, serial dilutions of biotin-labelled AMCase, streptavidin-HRP, TMB, A450
# Method: (§1) C/CLP-Galectin Interaction ELISA: Galectin is immobilized on a microtiter plate in DPBS over night at 2-8° C. The plates are then washed with DPBS, 0.1% Tween 20 and blocked for 1 hour at room temperature. Serial dilutions of biotin labeled AMCase are added to each well and incubated for ˜1 hour at room temperature followed by HRP labeled streptavidin. Horseradish peroxydase activity is detected with TMB substrate (KPL, MD) and the reaction is quenched with 1% H2SO4. The absorbance is read at 450 nm.
# [1] = target: B1; experiment: ELISA: galectin immobilised on the plate, serial dilutions of biotin-labelled C-terminally truncated human AMCase, A450
# Method: as §1
# [2] = target: T2, mouse acidic mammalian chitinase (AMCase), full length (mouse, UniProt Q91XA9 22-473); experiment: ELISA (data not shown)
# T2 construct: Recombinant, secreted from HEK293 cells and purified by its His tag; Biotin labeled in the galectin ELISA; also called mAMCase; mouse AMCase
# [3] = target: T3, mouse AMCase truncated form lacking the C-terminal chitin binding domain (mouse, UniProt Q91XA9 22-398, limits assumed); experiment: ELISA
# T3 construct: also called mAMCase TR
# mouse chitotriosidase = target: T4, mouse chitotriosidase (mouse, UniProt Q9D7Q1 22-464); experiment: ELISA
# T4 construct: Recombinant from HEK293; non-tagged versions also made; also called mChT; mouse ChT
# Ym1 = target: T5, Ym1 (mouse, UniProt O35744 22-398); experiment: ELISA
# T5 construct: Recombinant from HEK293; non-tagged versions also made; also called chitinase 3-like 3; ECF-L
# Ym2 = target: T6, Ym2 (mouse, UniProt Q91Z98 22-402); experiment: ELISA
# T6 construct: Recombinant from HEK293; non-tagged versions also made; also called chitinase 3-like 4
# mouse YKL-40/BRP-39 = target: T7, mouse YKL-40/BRP-39 (mouse, UniProt Q61362 30-389); experiment: ELISA
# T7 construct: Recombinant from HEK293; non-tagged versions also made; also called mYKL40/BRP39; mYKL-40
# [4] = target: B6; experiment: ELISA
# [5] = target: B1; experiment: ELISA
# human chitotriosidase = target: T8, human chitotriosidase (human, UniProt Q13231 22-466); experiment: ELISA
# T8 construct: Recombinant from HEK293; non-tagged versions also made; also called hChT; ChT
# human YKL-39 = target: T1, human YKL-39; experiment: ELISA
# human YKL-40 = target: T9, human YKL-40 (human, UniProt P36222 22-383); experiment: ELISA
# T9 construct: Recombinant from HEK293; non-tagged versions also made; also called hYKL-40; chitinase 3-like 1
# [6] = target: B6; experiment: ELISA: galectin immobilised on the plate, serial dilutions of biotin-labelled full length human AMCase, A450
# Method: as §1
# human galectin-3 = target: T10, human galectin-3 (human, UniProt P17931 2-250); experiment: ELISA: galectin immobilised on the plate, serial dilutions of biotin-labelled AMCase, streptavidin-HRP, TMB, A450
# T10 construct: also called gal-3; LGALS3
# Method: as §1
# [7] = target: T2, mouse acidic mammalian chitinase …; experiment: ELISA; +++ = 2.50 to 3.99 OD at 62.5 ng/ml
# mouse AMCase D136A = target: T11, mouse AMCase D136A (mouse, UniProt Q91XA9 22-473); experiment: ELISA; +++ = 2.50 to 3.99 OD at 62.5 ng/ml
# T11 construct: Full length point mutant without chitinase activity; also called mAMCase D136A
# mouse AMCase E140A = target: T12, mouse AMCase E140A (mouse, UniProt Q91XA9 22-473); experiment: ELISA; +++ = 2.50 to 3.99 OD at 62.5 ng/ml
# T12 construct: Full length point mutant without chitinase activity; also called mAMCase E140A
# [8] = target: B6; experiment: ELISA: galectin immobilised on the plate, serial dilutions of biotin-labelled AMCase, streptavidin-HRP, TMB, A450
# Method: as §1
# T2 sequence (Q91XA9 other isoform, or with tags, fused parts or gaps limits assumed): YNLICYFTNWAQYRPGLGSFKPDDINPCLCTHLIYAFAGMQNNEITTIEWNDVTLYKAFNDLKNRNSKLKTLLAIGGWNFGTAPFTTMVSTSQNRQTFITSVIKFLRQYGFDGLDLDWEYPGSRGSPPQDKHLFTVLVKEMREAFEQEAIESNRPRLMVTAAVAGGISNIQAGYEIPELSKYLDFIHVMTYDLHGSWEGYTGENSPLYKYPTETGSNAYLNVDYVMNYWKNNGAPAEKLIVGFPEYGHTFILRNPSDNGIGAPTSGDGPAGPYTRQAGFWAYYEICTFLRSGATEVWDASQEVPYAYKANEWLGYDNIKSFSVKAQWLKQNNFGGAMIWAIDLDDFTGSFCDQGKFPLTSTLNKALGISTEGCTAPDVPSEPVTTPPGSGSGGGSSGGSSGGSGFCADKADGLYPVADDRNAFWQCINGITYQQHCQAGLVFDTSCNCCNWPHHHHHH
# T9 sequence (P36222 other isoform, or with tags, fused parts or gaps limits assumed): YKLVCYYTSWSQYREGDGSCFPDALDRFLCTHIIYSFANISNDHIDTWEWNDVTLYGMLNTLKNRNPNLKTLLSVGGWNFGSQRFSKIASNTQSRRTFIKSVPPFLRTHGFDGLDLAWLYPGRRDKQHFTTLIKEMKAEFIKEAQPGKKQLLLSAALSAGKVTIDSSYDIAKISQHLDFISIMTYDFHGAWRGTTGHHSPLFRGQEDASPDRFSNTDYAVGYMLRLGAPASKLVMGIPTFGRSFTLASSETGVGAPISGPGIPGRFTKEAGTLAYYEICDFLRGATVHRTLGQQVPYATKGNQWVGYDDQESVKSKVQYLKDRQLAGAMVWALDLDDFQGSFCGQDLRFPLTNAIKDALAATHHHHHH
# T7 sequence (Q61362 other isoform, or with tags, fused parts or gaps limits assumed): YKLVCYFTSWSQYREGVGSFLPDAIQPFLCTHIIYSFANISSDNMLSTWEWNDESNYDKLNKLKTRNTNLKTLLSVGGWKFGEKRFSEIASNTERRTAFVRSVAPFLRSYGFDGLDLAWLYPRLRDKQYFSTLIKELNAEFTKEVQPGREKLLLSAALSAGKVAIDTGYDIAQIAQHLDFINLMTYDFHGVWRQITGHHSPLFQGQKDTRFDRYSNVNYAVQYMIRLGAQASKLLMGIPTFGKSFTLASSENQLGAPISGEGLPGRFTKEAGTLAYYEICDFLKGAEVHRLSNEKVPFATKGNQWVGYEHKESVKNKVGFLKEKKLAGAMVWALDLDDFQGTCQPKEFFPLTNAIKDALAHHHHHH
# T4 sequence (Q9D7Q1 other isoform, or with tags, fused parts or gaps limits assumed): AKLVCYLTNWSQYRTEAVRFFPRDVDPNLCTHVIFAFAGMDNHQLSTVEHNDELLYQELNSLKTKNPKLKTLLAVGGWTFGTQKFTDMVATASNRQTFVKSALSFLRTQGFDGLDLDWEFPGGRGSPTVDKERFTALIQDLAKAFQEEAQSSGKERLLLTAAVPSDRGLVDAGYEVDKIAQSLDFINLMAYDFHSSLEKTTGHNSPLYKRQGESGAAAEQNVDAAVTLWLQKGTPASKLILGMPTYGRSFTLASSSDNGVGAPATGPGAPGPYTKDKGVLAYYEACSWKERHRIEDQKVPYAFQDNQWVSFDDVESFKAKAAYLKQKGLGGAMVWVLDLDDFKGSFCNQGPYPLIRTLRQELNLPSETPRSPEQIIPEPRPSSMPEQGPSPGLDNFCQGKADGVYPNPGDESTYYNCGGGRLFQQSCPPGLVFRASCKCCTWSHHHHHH
# T3 sequence (Q91XA9 22-398 limits assumed): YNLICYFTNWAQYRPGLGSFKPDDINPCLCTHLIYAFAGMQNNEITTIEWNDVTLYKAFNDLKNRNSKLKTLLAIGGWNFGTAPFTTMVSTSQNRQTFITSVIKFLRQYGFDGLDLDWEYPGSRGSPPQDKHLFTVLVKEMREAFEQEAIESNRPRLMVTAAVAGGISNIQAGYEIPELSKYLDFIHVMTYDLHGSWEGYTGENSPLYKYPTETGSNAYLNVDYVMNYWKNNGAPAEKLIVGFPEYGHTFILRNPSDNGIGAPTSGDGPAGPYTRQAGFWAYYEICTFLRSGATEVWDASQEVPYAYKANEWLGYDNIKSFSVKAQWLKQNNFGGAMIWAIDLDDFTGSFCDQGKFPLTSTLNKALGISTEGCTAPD
# T8 sequence (Q13231 other isoform, or with tags, fused parts or gaps limits assumed): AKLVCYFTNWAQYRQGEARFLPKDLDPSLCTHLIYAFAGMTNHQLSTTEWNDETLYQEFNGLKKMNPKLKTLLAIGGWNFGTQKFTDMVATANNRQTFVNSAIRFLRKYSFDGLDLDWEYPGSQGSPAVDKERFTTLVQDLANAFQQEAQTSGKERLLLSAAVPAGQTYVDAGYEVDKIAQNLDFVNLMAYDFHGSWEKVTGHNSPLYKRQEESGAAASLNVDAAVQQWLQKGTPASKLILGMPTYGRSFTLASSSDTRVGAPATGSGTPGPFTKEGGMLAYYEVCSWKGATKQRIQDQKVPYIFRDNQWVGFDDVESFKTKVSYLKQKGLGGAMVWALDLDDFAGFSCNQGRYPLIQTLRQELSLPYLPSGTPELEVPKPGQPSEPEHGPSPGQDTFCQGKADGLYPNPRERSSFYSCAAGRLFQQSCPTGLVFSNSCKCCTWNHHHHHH
# T12 sequence (Q91XA9 22-473 E140A limits assumed): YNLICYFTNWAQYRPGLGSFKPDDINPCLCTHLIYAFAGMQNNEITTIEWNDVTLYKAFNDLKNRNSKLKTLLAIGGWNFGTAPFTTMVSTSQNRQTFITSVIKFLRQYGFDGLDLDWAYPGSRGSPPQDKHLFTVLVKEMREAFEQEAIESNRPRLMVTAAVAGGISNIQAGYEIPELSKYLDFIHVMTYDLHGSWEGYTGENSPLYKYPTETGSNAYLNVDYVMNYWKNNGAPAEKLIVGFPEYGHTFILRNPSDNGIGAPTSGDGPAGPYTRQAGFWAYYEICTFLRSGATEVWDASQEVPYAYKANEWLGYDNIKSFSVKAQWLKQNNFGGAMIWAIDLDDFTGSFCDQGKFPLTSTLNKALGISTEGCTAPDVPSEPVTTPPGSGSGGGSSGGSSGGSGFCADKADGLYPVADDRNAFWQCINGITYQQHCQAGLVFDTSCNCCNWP
# T5 sequence (O35744 other isoform, or with tags, fused parts or gaps limits assumed): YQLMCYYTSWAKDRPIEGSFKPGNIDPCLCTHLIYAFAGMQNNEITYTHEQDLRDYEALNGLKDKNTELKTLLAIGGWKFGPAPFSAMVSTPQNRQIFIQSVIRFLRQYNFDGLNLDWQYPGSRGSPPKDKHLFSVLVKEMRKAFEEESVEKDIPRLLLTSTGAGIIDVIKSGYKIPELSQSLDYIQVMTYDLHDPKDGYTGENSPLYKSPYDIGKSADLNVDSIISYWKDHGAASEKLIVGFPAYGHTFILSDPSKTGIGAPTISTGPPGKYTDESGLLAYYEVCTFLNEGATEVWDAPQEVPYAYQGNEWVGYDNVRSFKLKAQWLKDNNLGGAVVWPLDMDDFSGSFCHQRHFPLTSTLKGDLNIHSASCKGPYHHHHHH
# T11 sequence (Q91XA9 22-473 D136A limits assumed): as the sequence (Q91XA9 22-473 E140A limits assumed) above, with D115A, A119E counted along it
# T10 sequence (P17931 2-250 limits assumed): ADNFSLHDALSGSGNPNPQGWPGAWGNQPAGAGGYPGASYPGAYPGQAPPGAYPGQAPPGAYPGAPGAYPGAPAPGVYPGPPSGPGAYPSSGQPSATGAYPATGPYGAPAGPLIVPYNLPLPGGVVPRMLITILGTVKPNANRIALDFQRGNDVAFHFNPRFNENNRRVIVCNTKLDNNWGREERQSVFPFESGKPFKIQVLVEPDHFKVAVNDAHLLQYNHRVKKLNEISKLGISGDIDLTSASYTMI
# T6 sequence (Q91Z98 other isoform, or with tags, fused parts or gaps limits assumed): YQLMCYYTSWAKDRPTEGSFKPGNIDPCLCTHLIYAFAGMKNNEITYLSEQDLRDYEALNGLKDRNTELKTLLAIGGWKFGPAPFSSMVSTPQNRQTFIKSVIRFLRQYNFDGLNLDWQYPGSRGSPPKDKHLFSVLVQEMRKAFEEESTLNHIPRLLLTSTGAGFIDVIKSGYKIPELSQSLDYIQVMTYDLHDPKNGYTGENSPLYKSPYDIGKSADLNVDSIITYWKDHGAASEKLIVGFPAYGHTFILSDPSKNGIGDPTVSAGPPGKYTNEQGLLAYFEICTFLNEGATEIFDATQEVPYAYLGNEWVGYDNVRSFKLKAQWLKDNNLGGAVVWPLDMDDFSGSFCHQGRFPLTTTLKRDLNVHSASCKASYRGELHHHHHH
binder,measurement,setting,value
B1,EC50 (read off the curve),human galectin-4,~0.1 µg/mL
B2,binding result,[1],no binding (tested: 10 ug/ml)
B3,binding result,[2],binds
B4,binding result,[3],no binding
same,binding result,mouse chitotriosidase,no binding
same,binding result,Ym1,no binding
same,binding result,Ym2,no binding
same,binding result,mouse YKL-40/BRP-39,no binding
same,binding result,[4],no binding
same,binding result,[5],no binding
same,binding result,human chitotriosidase,no binding
same,binding result,human YKL-39,no binding
same,binding result,human YKL-40,no binding
B5,binding result,[6],no binding (tested: 10 ug/ml)
same,binding result,[1],no binding (tested: 10 ug/ml)
B6,EC50 (read off the curve),human galectin-3,~0.06 µg/mL
B7,binding result,[3],no binding
same,binding result,mouse chitotriosidase,no binding
same,binding result,mouse YKL-40/BRP-39,no binding
same,binding result,[4],no binding
same,binding result,[5],no binding
same,binding result,human chitotriosidase,no binding
same,binding result,human YKL-39,no binding
same,binding result,human YKL-40,no binding
same,ELISA OD at 62.5 ng/ml antibody,[7],2.5 to 3.99 od
same,ELISA OD at 62.5 ng/ml antibody,mouse AMCase D136A,2.5 to 3.99 od
same,ELISA OD at 62.5 ng/ml antibody,mouse AMCase E140A,2.5 to 3.99 od
B8,binding result,[8],binds
B9,binding result,[2],binds
